Data reported in PMC9784774.

Experiments:
Assay in all cases: SPR; Biacore X100, CM5 chip, RT, 1:1 binding model; methods: antibody (4 μg/mL) captured by anti-human Fc IgG to about 100 RU, pentamer or trimer in five 2-fold dilutions injected at 30 μL/min, 90 s association, 600 s dissociation (the legend of Fig. 5 tells the reverse orientation)
[1] = biological target: pentamer mutant UL128_T94A (human cytomegalovirus | human cytomegalovirus strain VR1814)
[2] = biological target: pentamer mutant UL131A_E23A (human cytomegalovirus | human cytomegalovirus strain VR1814)
[3] = biological target: pentamer mutant UL128_K47A (human cytomegalovirus | human cytomegalovirus strain VR1814)
[4] = biological target: pentamer mutant UL131A_K27A (human cytomegalovirus | human cytomegalovirus strain VR1814)

B1: MAb 9I6 (antibody, V domains shown)
VH: EVQLVQSGAEVKKPGESLKISCRESGDTFPAYWIAWVRQMPGKGLEWMGIIYPIDSETTYSPSFQGQVTISADKSINTAYLQWSSLKASDSAIYYCARGTSTGLREAFHIWGQGTMVTVSS
VL: DVVMTQSPLSLAVTLGQPAYISCRSSQSLGYSDGNTYLNWFQQRPGQSPRRLIYEVSNRDSGVPDRFSGSGSGTDFTLKISRVEAEDVGTYYCMQGTHWPPMCSFGQGTKLEIK
B1 was tested, and the Kd [1] was 0.57 nM, the koff [1] was 3e-05 s⁻¹ and the kon [1] was 53100 M⁻¹ s⁻¹. The Kd [2] was 2.83 nM, the koff [2] was 0.000115 s⁻¹ and the kon [2] was 40700 M⁻¹ s⁻¹. For the same binder, the Kd [3] was 1.5 nM, the koff [3] was 7.38e-05 s⁻¹ and the kon [3] was 49200 M⁻¹ s⁻¹. For the same binder, the Kd [4] was 1.91 nM, the koff [4] was 0.000181 s⁻¹ and the kon [4] was 94700 M⁻¹ s⁻¹.
